# Test results published in article PMC4066111 (Nature, 2014).
# B1: NO66 (Nucleolar protein 66), aa 183-641, wild type (enzyme)
# chain: SPLRRVLAELNRIPSSRRRAARLFEWLIAPMPPDHFYRRLWEREAVLVRRQDHTYYQGLFSTADLDSMLRNEEVQFGQHLDAARYINGRRETLNPPGRALPAAAWSLYQAGCSLRLLCPQAFSTTVWQFLAVLQEQFGSMAGSNVYLTPPNSQGFAPHYDDIEAFVLQLEGRKLWRVYRPRVPTEELALTSSPNFSQDDLGEPVLQTVLEPGDLLYFPRGFIHQAECQDGVHSLHLTLSTYQRNTWGDFLEAILPLAVQAAMEENVEFRRGLPRDFMDYMGAQHSDSKDPRRTAFMEKVRVLVARLGHFAPVDAVADQRAKDFIHDSLPPVLTDRERALSVYGLPIRWEAGEPVNVGAQLTTETEVHMLQDGIARLVGEGGHLFLYYTVENSRVYHLEEPKCLEIYPQQADAMELLLGSYPEFVRVGDLPCDSVEDQLSLATTLYDKGLLLTKMPLALN
# B2: Mina53 (MYC-induced nuclear antigen), aa 26-465, wild type (enzyme)
# chain: AAGGPSALNFDSPSSLFESLISPIKTETFFKEFWEQKPLLIQRDDPALATYYGSLFKLTDLKSLCSRGMYYGRDVNVCRCVNGKKKVLNKDGKAHFLQLRKDFDQKRATIQFHQPQRFKDELWRIQEKLECYFGSLVGSNVYITPAGSQGLPPHYDDVEVFILQLEGEKHWRLYHPTVPLAREYSVEAEERIGRPVHEFMLKPGDLLYFPRGTIHQADTPAGLAHSTHVTISTYQNNSWGDFLLDTISGLVFDTAKEDVELRTGIPRQLLLQVESTTVATRRLSGFLRTLADRLEGTKELLSSDMKKDFIMHRLPPYSAGDGAELSTPGGKLPRLDSVVRLQFKDHIVLTVLPDQDQSDEAQEKMVYIYHSLKNSRETHMMGNEEETEFHGLRFPLSHLDALKQIWNSPAISVKDLKLTTDEEKESLVLSLWTECLIQVV
# B3: ycfD from Escherichia coli, full length, wild type (enzyme)
# chain: MEYQLTLNWPDFLERHWQKRPVVLKRGFNNFIDPISPDELAGLAMESEVDSRLVSHQDGKWQVSHGPFESYDHLGETNWSLLVQAVNHWHEPTAALMRPFRELPDWRIDDLMISFSVPGGGVGPHLDQYDVFIIQGTGRRRWRVGEKLQMKQHCPHPDLLQVDPFEAIIDEELEPGDILYIPPGFPHEGYALENAMNYSVGFRAPNTRELISGFADYVLQRELGGNYYSDPDVPPRAHPADVLPQEMDKLREMMLELINQPEHFKQWFGEFISQSRHELDIAPPEPPYQPDEIYDALKQGEVLVRLGGLRVLRIGDDVYANGEKIDSPHRPALDALASNIALTAENFGDALEDPSFLAMLAALVNSGYWFFEG
# Assays:
# [1] = biological target: B1; assay: cross-linking
# [2] = biological target: L299C/C300S NO66 (aa 183-641) (human, UniProt Q9H6W3 183-641, L299C | C300S); assay: cross-linking
# crystal structure = biological target: the molecule itself; assay: crystal structure
# Y209C Mina53 (aa 26-465) = Y209C Mina53 (aa 26-465) (human, UniProt Q8IUF8 26-465, Y209C); assay: cross-linking
Binder,binding result (crystal structure),other results
NPVEHPFGGGNHQHICKPST [rpL8 (205-224) G220C peptide],–,binding result [1]: binds; binding result [2]: binds
B1,binds,–
RGNAGCLHHHRINFDKYHP [rpL27a (32-50) G37C peptide],–,binding result (Y209C Mina53 (aa 26-465)): binds
B2,binds,–
B3,binds,–
